Results from patent US20250011363A1, “OPTIMIZED SHORTENED PEPTIDE THAT BINDS TO ACETYLCHOLINE RECEPTOR, AND USE THEREOF” (SKINMED CO., LTD., priority 2021, published 2025).

Molecular target: acetylcholine receptor (Homo sapiens, UniProt P02708)
Assay: SPR binding affinity (RU) of optimized 5mer/6mer/7mer peptides, Examples 6-7
Settings: SPR, Resonance Units; peptides tested at 10 μM; 6mer-2 Bottom sequence
Procedure, shortened: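 Binding response (RU) to the human acetylcholine receptor was measured by SPR. Each 5mer or 6mer library peptide was applied at 10 μM, with sequences drawn from top and bottom amino-acid combinations.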

Chain of acetylcholine receptor (P02708 21-457): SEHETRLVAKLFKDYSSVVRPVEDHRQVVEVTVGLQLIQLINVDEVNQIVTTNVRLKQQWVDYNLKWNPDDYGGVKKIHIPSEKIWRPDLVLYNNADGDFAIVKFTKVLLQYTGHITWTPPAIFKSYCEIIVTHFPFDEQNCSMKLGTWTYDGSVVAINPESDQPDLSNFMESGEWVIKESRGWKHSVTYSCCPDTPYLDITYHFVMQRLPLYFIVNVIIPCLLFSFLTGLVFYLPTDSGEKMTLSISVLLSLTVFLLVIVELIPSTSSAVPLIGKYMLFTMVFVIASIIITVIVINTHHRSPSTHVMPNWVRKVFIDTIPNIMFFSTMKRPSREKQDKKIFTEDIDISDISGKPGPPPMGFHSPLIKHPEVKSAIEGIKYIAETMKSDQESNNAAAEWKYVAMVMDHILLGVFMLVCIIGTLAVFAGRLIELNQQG

Row | Substance | Binding affinity
1 | 6mer-2-864 (RKCAKK) | 12 Ru
2 | 6mer-2-865 (RHCNRK) | 16 Ru
3 | 6mer-2-866 (RDNPKK) | 24 Ru
4 | 6mer-2-867 (KYWEKK) | 32 Ru
5 | 6mer-2-868 (RTPNRR) | 30 Ru
6 | 6mer-2-869 (RHDHKR) | 18 Ru
7 | 6mer-2-870 (KMTEKK) | 21 Ru
8 | 6mer-2-871 (REMPKR) | 31 Ru
9 | 6mer-2-872 (KTHFRK) | 28 Ru
10 | 6mer-2-873 (KNWGRR) | 11 Ru
11 | 6mer-2-874 (KIHFRK) | 33 Ru
12 | 6mer-2-875 (RIDHRK) | 13 Ru
13 | 6mer-2-876 (KEDNKR) | 17 Ru
14 | 6mer-2-877 (KPPERR) | 17 Ru
15 | 6mer-2-878 (KETVRR) | 24 Ru
16 | 6mer-2-879 (RTMDRR) | 19 Ru
17 | 6mer-2-880 (RTHHKK) | 12 Ru
18 | 6mer-2-881 (KDTEKK) | 33 Ru
19 | 6mer-2-882 (RTPAKR) | 15 Ru
20 | 6mer-2-883 (RTNEKR) | 22 Ru
21 | 6mer-2-884 (KMTMKK) | 11 Ru
22 | 6mer-2-885 (KCMVRR) | 17 Ru

Row | Substance | Binding affinity
23 | 6mer-2-886 (KTWVRR) | 13 Ru
24 | 6mer-2-887 (RCPKKR) | 18 Ru
25 | 6mer-2-888 (RIAKRK) | 17 Ru
26 | 6mer-2-889 (REWDKK) | 12 Ru
27 | 6mer-2-890 (RDNPKR) | 30 Ru
28 | 6mer-2-891 (RTSIRK) | 28 Ru
29 | 6mer-2-892 (KDENRK) | 27 Ru
30 | 6mer-2-893 (REHVRR) | 17 Ru
31 | 6mer-2-894 (RFHWRR) | 22 Ru
32 | 6mer-2-895 (KYMAKK) | 28 Ru
33 | 6mer-2-896 (RTCARR) | 30 Ru
34 | 6mer-2-897 (RPAHKK) | 17 Ru
35 | 6mer-2-898 (KKKDKK) | 16 Ru
36 | 6mer-2-899 (KKMVKR) | 13 Ru
37 | 6mer-2-900 (RFSAKK) | 11 Ru
38 | 6mer-2-901 (RYWDRK) | 34 Ru
39 | 6mer-2-902 (KPDVRK) | 26 Ru
40 | 6mer-2-903 (KKNPKK) | 40 Ru
41 | 6mer-2-904 (KCCFKK) | 30 Ru
42 | 6mer-2-905 (RPKERR) | 26 Ru
43 | 6mer-2-906 (KYCDKK) | 40 Ru
44 | 6mer-2-907 (RTMNRR) | 25 Ru

Row | Substance | Binding affinity
45 | 6mer-2-908 (KYKKKR) | 33 Ru
46 | 6mer-2-909 (RCNPRR) | 42 Ru
47 | 6mer-2-910 (RHEHRR) | 21 Ru
48 | 6mer-2-911 (KMSGKR) | 21 Ru
49 | 6mer-2-912 (RAPIRR) | 27 Ru
50 | 6mer-2-913 (KFKNRR) | 25 Ru
51 | 6mer-2-914 (KDDIKK) | 25 Ru
52 | 6mer-2-915 (KNCWKR) | 29 Ru
53 | 6mer-2-916 (KTTEKR) | 22 Ru
54 | 6mer-2-917 (RFCWRK) | 23 Ru
55 | 6mer-2-918 (KNWMRK) | 35 Ru
56 | 6mer-2-919 (KAKHKR) | 27 Ru
57 | 6mer-2-920 (RMTIKK) | 26 Ru
58 | 6mer-2-921 (RPKAKK) | 22 Ru
59 | 6mer-2-922 (KDNVRR) | 41 Ru
60 | 6mer-2-923 (RCCAKK) | 33 Ru
61 | 6mer-2-924 (RFDHKK) | 28 Ru
62 | 6mer-2-925 (RASVKR) | 23 Ru
63 | 6mer-2-926 (RPTVKR) | 31 Ru
64 | 6mer-2-927 (RFNPRK) | 39 Ru
65 | 6mer-2-928 (KFCIRR) | 28 Ru
66 | 6mer-2-929 (KNHMRK) | 26 Ru

Row | Substance | Binding affinity
67 | 6mer-2-930 (RTWIKR) | 37 Ru
68 | 6mer-2-931 (RYCFKR) | 29 Ru
69 | 6mer-2-932 (RIPWRR) | 35 Ru
70 | 6mer-2-933 (RYSMKR) | 34 Ru
71 | 6mer-2-934 (KYKDRR) | 26 Ru
72 | 6mer-2-935 (KKCNKK) | 22 Ru
73 | 6mer-2-936 (KPPAKK) | 21 Ru
74 | 6mer-2-937 (RASHRR) | 35 Ru
75 | 6mer-2-938 (RIEHKR) | 40 Ru
76 | 6mer-2-939 (KKCARR) | 22 Ru
77 | 6mer-2-940 (RNENKK) | 41 Ru
78 | 6mer-2-941 (RDEDKR) | 33 Ru
79 | 6mer-2-942 (KTDKRK) | 22 Ru
80 | 6mer-2-943 (KIDHRR) | 41 Ru
81 | 6mer-2-944 (KPEDKK) | 35 Ru
82 | 6mer-2-945 (KKCERK) | 42 Ru
83 | 6mer-2-946 (KPCEKK) | 21 Ru
84 | 6mer-2-947 (KTNWRK) | 41 Ru
85 | 6mer-2-948 (RPPFRR) | 28 Ru
86 | 6mer-2-949 (RPNARR) | 39 Ru
87 | 6mer-2-950 (KYNKRR) | 26 Ru
88 | 6mer-2-951 (RADEKK) | 42 Ru

Row | Substance | Binding affinity
89 | 6mer-2-952 (KYWGRR) | 24 Ru
90 | 6mer-2-953 (KESVKK) | 25 Ru
91 | 6mer-2-954 (KCTIRK) | 32 Ru
92 | 6mer-2-955 (RMPERR) | 29 Ru
93 | 6mer-2-956 (KFCWRR) | 28 Ru
94 | 6mer-2-957 (RDTHRR) | 40 Ru
95 | 6mer-2-958 (KFKARK) | 28 Ru
96 | 6mer-2-959 (RTNARK) | 35 Ru
97 | 6mer-2-960 (RDCVKR) | 29 Ru
98 | 6mer-2-961 (KNTKKR) | 21 Ru
99 | 6mer-2-962 (KKSNRK) | 30 Ru
100 | 6mer-2-963 (KAKHRR) | 37 Ru
101 | 6mer-2-964 (KCEDRK) | 41 Ru
102 | 6mer-2-965 (KPWFKR) | 36 Ru
103 | 6mer-2-966 (KEDAKR) | 41 Ru
104 | 6mer-2-967 (RTSNKK) | 35 Ru
105 | 6mer-2-968 (RHWEKK) | 39 Ru
106 | 6mer-2-969 (KATHKR) | 33 Ru
107 | 6mer-2-970 (KDDVRR) | 27 Ru
108 | 6mer-2-971 (KEMFRK) | 29 Ru
109 | 6mer-2-972 (KAMFRR) | 38 Ru
110 | 6mer-2-973 (KCPIKK) | 41 Ru

Row | Substance | Binding affinity
111 | 6mer-2-974 (RFDDRR) | 38 Ru
112 | 6mer-2-975 (KKTMKK) | 38 Ru
113 | 6mer-2-976 (RTTGKK) | 26 Ru
114 | 6mer-2-977 (REMKRK) | 30 Ru
115 | 6mer-2-978 (KEPHRR) | 28 Ru
116 | 6mer-2-979 (KKAFKK) | 22 Ru
117 | 6mer-2-980 (KESGKR) | 34 Ru
118 | 6mer-2-981 (RCEIRK) | 32 Ru
119 | 6mer-2-982 (RMHAKK) | 38 Ru
120 | 6mer-2-983 (RTWHRR) | 37 Ru
121 | 6mer-2-984 (KDMWKK) | 43 Ru
122 | 6mer-2-985 (REMNKR) | 34 Ru
123 | 6mer-2-986 (KNWARR) | 27 Ru
124 | 6mer-2-987 (RCHPKK) | 22 Ru
125 | 6mer-2-988 (KMCEKK) | 41 Ru
126 | 6mer-2-989 (KAHNKR) | 22 Ru
127 | 6mer-2-990 (RKKMKR) | 41 Ru
128 | 6mer-2-991 (KCHFRR) | 30 Ru
129 | 6mer-2-992 (RMHFRR) | 33 Ru
130 | 6mer-2-993 (RHDVKK) | 29 Ru
131 | 6mer-2-994 (KYCIKK) | 41 Ru

Same assay, conditions: SPR, peptides at 10 μM; 6mer-2 Bottom sequence

Row | Substance | Binding affinity
132 | 6mer-2-995 (KFWEKK) | 38 Ru
133 | 6mer-2-996 (RHDARK) | 40 Ru
134 | 6mer-2-997 (KISFKK) | 30 Ru
135 | 6mer-2-998 (KEMWKK) | 43 Ru
136 | 6mer-2-999 (RATIKR) | 31 Ru
137 | 6mer-2-1000 (KCHDKK) | 41 Ru
138 | 6mer-2-1001 (RKKFKK) | 37 Ru
139 | 6mer-2-1002 (RCNDKR) | 42 Ru
140 | 6mer-2-1003 (KPEWKR) | 42 Ru
141 | 6mer-2-1004 (RDTHKR) | 38 Ru
142 | 6mer-2-1005 (RFKARR) | 23 Ru
143 | 6mer-2-1006 (RATMRR) | 30 Ru
144 | 6mer-2-1007 (RHTNKK) | 42 Ru
145 | 6mer-2-1008 (RAWKKR) | 38 Ru
146 | 6mer-2-1009 (KINPRK) | 34 Ru
147 | 6mer-2-1010 (RANHKK) | 36 Ru
148 | 6mer-2-1011 (RAEFRR) | 22 Ru
149 | 6mer-2-1012 (KASAKK) | 30 Ru
150 | 6mer-2-1013 (KPPDKR) | 23 Ru
151 | 6mer-2-1014 (RPPMRR) | 34 Ru
152 | 6mer-2-1015 (RDEMKR) | 29 Ru
153 | 6mer-2-1016 (RNEEKR) | 41 Ru
154 | 6mer-2-1017 (RAPVRR) | 40 Ru
155 | 6mer-2-1018 (RPTKKK) | 24 Ru
156 | 6mer-2-1019 (RNTWKK) | 23 Ru
157 | 6mer-2-1020 (KHDKKR) | 21 Ru
158 | 6mer-2-1021 (RYTPKR) | 39 Ru
159 | 6mer-2-1022 (KCNPRR) | 22 Ru
160 | 6mer-2-1023 (KAEFKR) | 26 Ru
161 | 6mer-2-1024 (RFHNKR) | 37 Ru
